Measured values from paper PMC5397151 (Nucleic Acids Research, 2017).
Blank lines part the entries; values can stand above or below the molecule they belong to.

Tests used:
[1] = system: pyRbkR; experiment: HPLC end-point riboflavin kinase assay, FMN detected at […] nm; type: biochemical, Pyrobaculum yellowstonensis; conditions: read-out: apparent Km; saturating CTP (0.2 mM), 5 mM MgCl2, 0.1 M NaCl, HEPES pH 8, 60 °C
[2] = biological target: the molecule itself; experiment: crystal structure
[3] = biological target: T1, taRbkR (Thermoplasma acidophilum, UniProt Q9HJA6 1-220); experiment: fluorescence polarization
T1 sequence: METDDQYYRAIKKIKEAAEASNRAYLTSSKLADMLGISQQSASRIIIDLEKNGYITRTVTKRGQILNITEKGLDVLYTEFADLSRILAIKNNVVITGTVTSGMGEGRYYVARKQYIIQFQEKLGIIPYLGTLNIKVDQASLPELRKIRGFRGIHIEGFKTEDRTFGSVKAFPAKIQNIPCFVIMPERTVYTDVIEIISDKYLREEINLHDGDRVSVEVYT

[4] = biological target: T1, taRbkR; experiment: X-ray crystallography 1.85 A

Km [1]: 73 ± 26 µM
Molecule: Cc1cc2nc3c(=O)[nH]c(=O)nc-3n(C[C@H](O)[C@H](O)[C@H](O)CO)c2cc1C [riboflavin]

B1: RbkR protein from Thermoplasma acidophilum (bifunctional riboflavin kinase/regulator) (natural protein)
chain: ETDDQYYRAIKKIKEAAEASNRAYLTSSKLADMLGISQQSASRIIIDLEKNGYITRTVTKRGQILNITEKGLDVLYTEFADLSRILAIKNNVVITGTVTSGMGEGRYYVARKQYIIQFQEKLGIIPYLGTLNIKVDQASLPELRKIRGFRGIHIEGFKTEDRTFGSVKAFPAKIQNIPCFVIMPERTVYTDVIEIISDKYLREEINLHDGDRVSVEVYT
stoichiometry N [2]: 2

B2: ta ribT 35 bp (dsDNA)
DNA 1: TATGCTACTAATTCACGAGTAATTACTCAAATATT
DNA 2: AATATTTGAGTAATTACTCGTGAATTAGTAGCATA
apparent K (half saturation) [3]: ~16 nM

B3: ta ribT operator crystal duplex (dsDNA)
DNA 1: ATTACTAATTCACGAGTAA
DNA 2: TTTACTCGTGAATTAGTAA
binding result [4]: binds
